The values that follow come from US10696719B2, “Nucleoside triphosphate transporter and uses thereof” (THE SCRIPPS RESEARCH INSTITUTE, priority 2016, dated 2020).

Common to all, as to format: cell-based
Data set [1] concerns E. coli BL21(DE3). Here is the method: (§1) Unless otherwise stated, liquid bacterial cultures were grown in 2×YT (casein peptone 16 g/L, yeast extract 10 g/L, NaCl 5 g/L) supplemented with potassium phosphate (50 mM, pH 7), referred to hereafter as “media”, and incubated at 37° C. in a 48-well flat bottomed plate (CELLSTAR, Greiner Bio-One) with shaking at 200 rpm. Solid growth media was prepared with 2% agar. Antibiotics were used, as appropriate, at the following concentrations: carbenicillin, 100 μg/mL; streptomycin, 50 μg/mL; kanamycin, 50 μg/mL; zeocin, 50 μg/mL; chloramphenicol, 33 μg/mL for plasmids, 5 μg/mL for chromosomal integrants. All selective agents were purchased commercially. Cell growth, indicated as OD600, was measured using a Perkin Elmer Envision 2103 Multilabel Reader with a 590/20 nm filter.
(§2) Doubling times for strains grown in the dATP uptake assay were calculated by doubling time as (t2−t1)/log2(OD600,2/OD600,1), averaging across three, ˜30 min time intervals roughly corresponding to 30 min prior to dATP uptake and 60 min during dATP uptake.

Data set [2] relates to E. coli BL21(DE3). The data set can be described thus: dATP uptake assay. The method, then:
(§3) Radioactive uptake assays were conducted as described in Haferkamp, et al., “Tapping the nucleotide pool of the host: novel nucleotide carrier proteins of Protochlamydia amoebophila,” Mol. Microbiol. 60, 1534-1545 (2006) with the following modifications: C41(DE3) and BL21(DE3) strains carrying plasmid-based transporters and their appropriate empty plasmid controls, as well as BL21(DE3) chromosomal transporter integrants and their appropriate isogenic transporter-less control, were grown overnight with appropriate antibiotics (streptomycin for pCDF plasmids and chloramphenicol for pSC plasmids and integrants) in 500 μL of media. Cultures were diluted to an OD600 of 0.02 in 500 μL of fresh media, grown for 2.5 h, induced with IPTG (0-1 mM, pCDF strains only) or grown (all other strains) for 1 h, and incubated with dATP spiked with [α-^32P]-dATP (final concentration=250 μM (0.5 μCi/mL)) for ˜1 h. […]
(§4) Following incubation with dATP, 200 μL of each culture was collected through a 96-well 0.65 μm glass fiber filter plate (MultiScreen, EMD Millipore) under vacuum and washed with cold potassium phosphate (3×200 μL, 50 mM, pH 7) and cold ddH2O (1×200 μL). […] The resulting image was quantified by densitometric analysis using Image Studio Lite (LI-COR). […]

Data set [3] has as its system E. coli C41(DE3). The data set can be described thus: dATP uptake assay. Here is the method: as §3, §4
Data set [4] concerns E. coli C41(DE3). The data set can be described thus: growth / toxicity of transporter expression. The method, then:
as §1, §2

“T7 RNAP: T7 RNA polymerase expressed in the E. coli (DE3) host strains”: in the data set on E. coli BL21(DE3) [1], the toxicity of expression result is on record as “toxic”.

B1: PtNTT2(66-575): N-terminally truncated PtNTT2 variant, amino acids 1-65 removed, SEQ ID NO: 4 (protein, listed as Phaeodactylum tricornutum)
chain: MGGSTVAPTTPLATGGALRKVRQAVFPIYGNQEVTKFLLIGSIKFFIILALTLTRDTKDTLIVTQCGAEAIAFLKIYGVLPAATAFIALYSKMSNAMGKKMLFYSTCIPFFTFFGLFDVFIYPNAERLHPSLEAVQAILPGGAASGGMAVLAKIATHWTSALFYVMAEIYSSVSVGLLFWQFANDVVNVDQAKRFYPLFAQMSGLAPVLAGQYVVRFASKAVNFEASMHRLTAAVTFAGIMICIFYQLSSSYVERTESAKPAADNEQSIKPKKKKPKMSMVESGKFLASSQYLRLIAMLVLGYGLSINFTEIMWKSLVKKQYPDPLDYQRFMGNFSSAVGLSTCIVIFFGVHVIRLLGWKVGALATPGIMAILALPFFACILLGLDSPARLEIAVIFGTIQSLLSKTSKYALFDPTTQMAYIPLDDESKVKGKAAIDVLGSRIGKSGGSLIQQGLVFVFGNIINAAPVVGVVYYSVLVAWMSAAGRLSGLFQAQTEMDKADKMEAKTNKEK
As for B1, the entries for the “uptake of [α-32P]-dATP” value in the data set with E. coli BL21(DE3) [2] and with E. coli C41(DE3) [3] were “increased levels” and “reduced uptake”, respectively. Besides, the values for the toxicity of expression result with E. coli BL21(DE3) [1] and in the data set with E. coli C41(DE3) [4] were “little increase in toxicity” and “lower toxicity relative to the full length PtNTT2”, respectively.

B2: PtNTT2: nucleoside triphosphate transporter from Phaeodactylum tricornutum, full length, SEQ ID NO: 1 (protein, listed as Phaeodactylum tricornutum)
chain: MRPYPTIALISVFLSAATRISATSSHQASALPVKKGTHVPDSPKLSKLYIMAKTKSVSSSFDPPRGGSTVAPTTPLATGGALRKVRQAVFPIYGNQEVTKFLLIGSIKFFIILALTLTRDTKDTLIVTQCGAEAIAFLKIYGVLPAATAFIALYSKMSNAMGKKMLFYSTCIPFFTFFGLFDVFIYPNAERLHPSLEAVQAILPGGAASGGMAVLAKIATHWTSALFYVMAEIYSSVSVGLLFWQFANDVVNVDQAKRFYPLFAQMSGLAPVLAGQYVVRFASKAVNFEASMHRLTAAVTFAGIMICIFYQLSSSYVERTESAKPAADNEQSIKPKKKKPKMSMVESGKFLASSQYLRLIAMLVLGYGLSINFTEIMWKSLVKKQYPDPLDYQRFMGNFSSAVGLSTCIVIFFGVHVIRLLGWKVGALATPGIMAILALPFFACILLGLDSPARLEIAVIFGTIQSLLSKTSKYALFDPTTQMAYIPLDDESKVKGKAAIDVLGSRIGKSGGSLIQQGLVFVFGNIINAAPVVGVVYYSVLVAWMSAAGRLSGLFQAQTEMDKADKMEAKTNKEK
For B2, the toxicity of expression entry in the data set on E. coli C41(DE3) [4] is reported as “toxic”.
